# In patent US9993529B2, “Stable formulations of a hyaluronan-degrading enzyme” (Halozyme, Inc., priority 2011, dated 2018):
# Assay: RP-HPLC insulin percent purity
# Assay type: physicochemical
# Description: Apparent solubility was measured as the percent insulin recovery as compared to the initial formulations/conditions.
# To determine the apparent solubility, the peak area of insulin/insulin analog main peak and desamido peak were integrated and combined together to calculate the percentage relative to the standards. […] The data were processed using Design-Expert® 7.0 (StatEase) and the “historical data” feature. Insulin percent purity was expressed as the percent of main insulin versus all insulin species.
substance,measurement,setting,value
"Regular Insulin: mature human insulin, SEQ ID NOS: 103 and 104",Percent of insulin main peak,"50 mM NaCl, pH 7.0, 0 months at 2-8° C.",97.64%
same,Percent of insulin main peak,"50 mM NaCl, pH 7.0, 0.25 months at 2-8° C.",97.59%
same,Percent of insulin main peak,"50 mM NaCl, pH 7.0, 0.5 months at 2-8° C.",97.50%
same,Percent of insulin main peak,"50 mM NaCl, pH 7.0, 1 month at 2-8° C.",97.44%
same,Percent of insulin main peak,"50 mM NaCl, pH 7.0, 3 months at 2-8° C.",97.24%
same,Percent of insulin main peak,"50 mM NaCl, pH 7.0, 5 months at 2-8° C.",97.73%
same,Percent of insulin main peak,"50 mM NaCl, pH 7.0, 9 months at 2-8° C.",97.20%
same,Percent of insulin main peak,"50 mM NaCl, pH 7.2, 0 months at 2-8° C.",97.64%
same,Percent of insulin main peak,"50 mM NaCl, pH 7.2, 0.25 months at 2-8° C.",97.59%
same,Percent of insulin main peak,"50 mM NaCl, pH 7.2, 0.5 months at 2-8° C.",97.56%
same,Percent of insulin main peak,"50 mM NaCl, pH 7.2, 1 month at 2-8° C.",97.46%
same,Percent of insulin main peak,"50 mM NaCl, pH 7.2, 3 months at 2-8° C.",97.47%
same,Percent of insulin main peak,"50 mM NaCl, pH 7.2, 5 months at 2-8° C.",97.75%
same,Percent of insulin main peak,"50 mM NaCl, pH 7.2, 9 months at 2-8° C.",97.27%
same,Percent of insulin main peak,"50 mM NaCl, pH 7.4, 0 months at 2-8° C.",97.58%
same,Percent of insulin main peak,"50 mM NaCl, pH 7.4, 0.25 months at 2-8° C.",97.54%
same,Percent of insulin main peak,"50 mM NaCl, pH 7.4, 0.5 months at 2-8° C.",97.48%
same,Percent of insulin main peak,"50 mM NaCl, pH 7.4, 1 month at 2-8° C.",97.47%
same,Percent of insulin main peak,"50 mM NaCl, pH 7.4, 3 months at 2-8° C.",97.45%
same,Percent of insulin main peak,"50 mM NaCl, pH 7.4, 5 months at 2-8° C.",97.74%
same,Percent of insulin main peak,"50 mM NaCl, pH 7.4, 9 months at 2-8° C.",97.27%
same,Percent of insulin main peak,"50 mM NaCl, pH 7.6, 0 months at 2-8° C.",97.65%
same,Percent of insulin main peak,"50 mM NaCl, pH 7.6, 0.25 months at 2-8° C.",97.58%
same,Percent of insulin main peak,"50 mM NaCl, pH 7.6, 0.5 months at 2-8° C.",97.33%
same,Percent of insulin main peak,"50 mM NaCl, pH 7.6, 1 month at 2-8° C.",97.44%
same,Percent of insulin main peak,"50 mM NaCl, pH 7.6, 3 months at 2-8° C.",97.35%
same,Percent of insulin main peak,"50 mM NaCl, pH 7.6, 5 months at 2-8° C.",97.66%
same,Percent of insulin main peak,"50 mM NaCl, pH 7.6, 9 months at 2-8° C.",97.34%
same,Percent of insulin main peak,"80 mM NaCl, pH 7.0, 0 months at 2-8° C.",97.65%
same,Percent of insulin main peak,"80 mM NaCl, pH 7.0, 0.25 months at 2-8° C.",97.50%
same,Percent of insulin main peak,"80 mM NaCl, pH 7.0, 0.5 months at 2-8° C.",97.30%
same,Percent of insulin main peak,"80 mM NaCl, pH 7.0, 1 month at 2-8° C.",97.20%
same,Percent of insulin main peak,"80 mM NaCl, pH 7.0, 5 months at 2-8° C.",97.81%
same,Percent of insulin main peak,"80 mM NaCl, pH 7.0, 9 months at 2-8° C.",96.18%
same,Percent of insulin main peak,"80 mM NaCl, pH 7.2, 0 months at 2-8° C.",97.57%
same,Percent of insulin main peak,"80 mM NaCl, pH 7.2, 0.25 months at 2-8° C.",97.59%
same,Percent of insulin main peak,"80 mM NaCl, pH 7.2, 0.5 months at 2-8° C.",97.30%
same,Percent of insulin main peak,"80 mM NaCl, pH 7.2, 1 month at 2-8° C.",97.45%
same,Percent of insulin main peak,"80 mM NaCl, pH 7.2, 3 months at 2-8° C.",97.34%
same,Percent of insulin main peak,"80 mM NaCl, pH 7.2, 5 months at 2-8° C.",97.64%
same,Percent of insulin main peak,"80 mM NaCl, pH 7.4, 0 months at 2-8° C.",97.56%
same,Percent of insulin main peak,"80 mM NaCl, pH 7.4, 0.25 months at 2-8° C.",97.61%
same,Percent of insulin main peak,"80 mM NaCl, pH 7.4, 0.5 months at 2-8° C.",97.51%
same,Percent of insulin main peak,"80 mM NaCl, pH 7.4, 1 month at 2-8° C.",97.43%
same,Percent of insulin main peak,"80 mM NaCl, pH 7.4, 3 months at 2-8° C.",97.43%
same,Percent of insulin main peak,"80 mM NaCl, pH 7.4, 5 months at 2-8° C.",97.75%
same,Percent of insulin main peak,"80 mM NaCl, pH 7.4, 9 months at 2-8° C.",97.29%
same,Percent of insulin main peak,"80 mM NaCl, pH 7.6, 0 months at 2-8° C.",97.63%
same,Percent of insulin main peak,"80 mM NaCl, pH 7.6, 0.25 months at 2-8° C.",97.62%
same,Percent of insulin main peak,"80 mM NaCl, pH 7.6, 0.5 months at 2-8° C.",97.52%
same,Percent of insulin main peak,"80 mM NaCl, pH 7.6, 1 month at 2-8° C.",97.37%
same,Percent of insulin main peak,"80 mM NaCl, pH 7.6, 3 months at 2-8° C.",97.64%
